{
  "source": "patent US20260167959A1",
  "about": "“APTAZYME-BASED REGULATABLE GENE EXPRESSION SYSTEMS” (REJUVENATE BIO INC, priority 2022, published 2026)",
  "molecules": {"B1": {"name": "RA251 (nucleic acid)", "DNA": "GCGCGTCCTGGACCGGAATACCAGCATCGTCTTGATGCCCTTGGAAGTCCGGTTCGCGGAAACGCGTACATCCAGCTGACGAGTCCCAAATAGGACGAAACGCGC", "modifications": "expressed or natural sequence"}, "B2": {"name": "RA264 (nucleic acid)", "DNA": "GCGCGTCCTGGATTCGCGGAAACGCGTACATCCAGCTAGAATACCAGCATCGTCTTGATGCCCTTGGAAGTCTGACGAGTCCCAAATAGGACGAAACGCGC", "modifications": "expressed or natural sequence"}, "B3": {"name": "RA263 (nucleic acid)", "DNA": "GCGCGTCCTGGATTCGCGGAAACGCGTACATCCAGCTGACGAGTCCCAAAAGTGATACCAGCATCGTCTTGATGCCCTTGGCAGCACTTAGGACGAAACGCGC", "modifications": "expressed or natural sequence"}, "B4": {"name": "RA274 (nucleic acid)", "DNA": "B3 DNA with A51G, G52A, T53G, G54A, C82A, C85T, A86C, C87T, T88C", "modifications": "expressed or natural sequence"}, "B5": {"name": "RA268 (nucleic acid)", "DNA": "GCGCGTCCTGGATTCGCGGAAACGCGTACATCCAGCTGACGAGTCCCAAATAGGACGAAACGCGGAGAATACCAGCATCGTCTTGATGCCCTTGGAAGTCTCC", "modifications": "expressed or natural sequence"}, "B6": {"name": "RA266 (nucleic acid)", "DNA": "GCGCGTCCTGGATTCGCGGAAACGCGCGAGAATACCAGCATCGTCTTGATGCCCTTGGAAGTCTCGTACATCCAGCTGACGAGTCCCAAATAGGACGAAACGCGC", "modifications": "expressed or natural sequence"}, "B7": {"name": "RA255 (nucleic acid)", "DNA": "GCGCGTCCTGGATTCGCGGAAACGCGTACATCCAGCTGACGAGTCCCAAATAGGACGAAACCGGAATACCAGCATCGTCTTGATGCCCTTGGAAGTCCGGCGCGC", "modifications": "expressed or natural sequence"}, "B8": {"name": "RA253 (nucleic acid)", "DNA": "GCGCGTCCTGGATTCGCGGAAACGCGTACATGGAATACCAGCATCGTCTTGATGCCCTTGGAAGTCCCCAGCTGACGAGTCCCAAATAGGACGAAACGCGC", "modifications": "expressed or natural sequence"}, "B9": {"name": "RA270 (nucleic acid)", "DNA": "GCGCGTCCTGGATTCGCGGAAACGCGTACATCCAGCTGACGAGTCCCAAATAGGACGAAGAATACCAGCATCGTCTTGATGCCCTTGGAAGTCTAACGCGC", "modifications": "expressed or natural sequence"}, "B10": {"name": "RA265 (nucleic acid)", "DNA": "GCGCGTCCTGGATTCGCGGAAACGCGTACATCCAGCTGACGAGTCCCAAAGGAATACCAGCATCGTCTTGATGCCCTTGGAAGTCCTAGGACGAAACGCGC", "modifications": "expressed or natural sequence"}, "B11": {"name": "RA252 (nucleic acid)", "DNA": "GCGCGTCCTGGATTCGCGGAAGTGATACCAGCATCGTCTTGATGCCCTTGGCAGCACTAACGCGTACATCCAGCTGACGAGTCCCAAATAGGACGAAACGCGC", "modifications": "expressed or natural sequence"}, "B12": {"name": "RA026 (nucleic acid)", "DNA": "GCGCGTCCTGGATTCGCGGAAACGCGTACATCCAGCTGACGAGTCCGAGAATACCAGCATCGTCTTGATGCCCTTGGAAGTCTCGCCAAATAGGACGAAACGCGC", "modifications": "expressed or natural sequence"}, "B13": {"name": "RA259 (nucleic acid)", "DNA": "GCGCGTCCTGGATTCGCGGAAACGCGTACATCCAGCTGACGAGTCCCAAATAGGACGAAAAGTGATACCAGCATCGTCTTGATGCCCTTGGCAGCACTCGCGC", "modifications": "expressed or natural sequence"}, "B14": {"name": "RA254 (nucleic acid)", "DNA": "GCGCGTCCTGGATTCGCGGAAACGCGTACATCCAGCAGAATACCAGCATCGTCTTGATGCCCTTGGAAGTCTTGACGAGTCCCAAATAGGACGAAACGCGC", "modifications": "expressed or natural sequence"}, "B15": {"name": "RA260 (nucleic acid)", "DNA": "GCGCGTCCTGGATTCGCGGAAACGCCGGAATACCAGCATCGTCTTGATGCCCTTGGAAGTCCGGCGTACATCCAGCTGACGAGTCCCAAATAGGACGAAACGCGC", "modifications": "expressed or natural sequence"}, "B16": {"name": "RA261 (nucleic acid)", "DNA": "GCGCGTCCTGGATTCGCGGAAACGCGTACATCCAGCTGACGAGTCCCAACGAGAATACCAGCATCGTCTTGATGCCCTTGGAAGTCTCGATAGGACGAAACGCGC", "modifications": "expressed or natural sequence"}, "B17": {"name": "RA271 (nucleic acid)", "DNA": "B16 DNA with G51C, A52G, T87C, C88G", "modifications": "expressed or natural sequence"}, "B18": {"name": "RA256 (nucleic acid)", "DNA": "GCGCGTCCTGGATTCGCGGAAACGCGTACATGAGAATACCAGCATCGTCTTGATGCCCTTGGAAGTCTCCCAGCTGACGAGTCCCAAATAGGACGAAACGCGC", "modifications": "expressed or natural sequence"}, "B19": {"name": "RA262 (nucleic acid)", "DNA": "GCTGTCACCGGAATACCAGCATCGTCTTGATGCCCTTGGAAGTCCGGTCTGATGAGTCCCATAAGGACGAAACAGC", "modifications": "expressed or natural sequence"}, "B20": {"name": "RA257 (nucleic acid)", "DNA": "GCGCGTCCTGGATTCGCGGAAACGCCGGAATACCAGCATCGTCTTGATGCCCTTGGAAGTCCGGTACATCCAGCTGACGAGTCCCAAATAGGACGAAACGCGC", "modifications": "expressed or natural sequence"}, "B21": {"name": "RA273 (nucleic acid)", "DNA": "GCGCGTCCTGGATTCGCGGGAATACCAGCATCGTCTTGATGCCCTTGGAAGTCCGAAACGCGTACATCCAGCTGACGAGTCCCAAATAGGACGAAACGCGC", "modifications": "expressed or natural sequence"}, "B22": {"name": "RA272 (nucleic acid)", "DNA": "GCGCGTCCTGGATTCGCGGAAACGCGTACATCCAGCTGACGAGTCCCAAATAGGACGAAACGCGCAGAATACCAGCATCGTCTTGATGCCCTTGGAAGTCT", "modifications": "expressed or natural sequence"}, "B23": {"name": "RA269 (nucleic acid)", "DNA": "GCGCGTCCTGGATTCGCGGAAACGCGAGAATACCAGCATCGTCTTGATGCCCTTGGAAGTCTTACATCCAGCTGACGAGTCCCAAATAGGACGAAACGCGC", "modifications": "expressed or natural sequence"}, "B24": {"name": "RA258 (nucleic acid)", "DNA": "GCGCGTCCTGGATTAGTGATACCAGCATCGTCTTGATGCCCTTGGCAGCACTCGCGGAAACGCGTACATCCAGCTGACGAGTCCCAAATAGGACGAAACGCGC", "modifications": "expressed or natural sequence"}, "B25": {"name": "RA267 (nucleic acid)", "DNA": "GCGCGTCCTGGATTCGCGGAAACGCGTACATCCAGCTGACGAGTGGAATACCAGCATCGTCTTGATGCCCTTGGAAGTCCCCCAAATAGGACGAAACGCGC", "modifications": "expressed or natural sequence"}, "B26": {"name": "RA025 (nucleic acid)", "DNA": "GCGCGTCCCGAGAATACCAGCATCGTCTTGATGCCCTTGGAAGTCTCGTGGATTCGCGGAAACGCGTACATCCAGCTGACGAGTCCCAAATAGGACGAAACGCGC", "modifications": "expressed or natural sequence"}},
  "note": "Substitutions are numbered along the chain they refer to.",
  "data": [
    {"tested_on": "Renilla luciferase RNA", "assay": "Barcoded aptazyme variant library screen: un-cleaved Renilla luciferase RNA by barcode read counts, HEK293-T cells", "format": "cell-based", "conditions": "un-cleaved Renilla luciferase RNA, HEK293-T cells cultured with 1 mM theophylline (ON) over without theophylline (OFF); barcode read counts, triplicate", "excerpt": "Based on the findings from Example 1, an aptazyme variant library was generated from the T3H48 ribozyme with one of seven variant theophylline aptamers inserted sequentially after each nucleotide of the DNA sequence encoding the T3H48 ribozyme sequence. […] The seven variant theophylline aptamers vary in their communication channels, which are the ribonucleotides of the aptamer that attach to the ribozyme sequence (see, Table 2).\nThe library was barcoded with unique sequences of nine nucleotides flanked by forward and reverse primer amplification sequences.\nThe aptazyme library was then PCR amplified and cloned into the psiCHECK™-2 dual luciferase vector in the 3′ UTR of the Renilla luciferase gene. […] The next day, the cells were isolated followed by DNA and RNA extraction using standard methods. The purified RNA was then converted to cDNA and the barcoded portion of the aptazyme library was PCR amplified. Similarly, the DNA was PCR amplified and all the samples were sequenced. All experimental conditions (with theophylline and without theophylline) were performed in triplicate. The read count for each barcode was determined with a custom build code and the data was normalized to identify the un-cleaved fractions of the Renilla luciferase RNA from cells that were cultured in the presence or absence of theophylline for each aptazyme, which was used to obtain the fold-change between ON- and OFF-states (FIG. 2).", "units": {"Fold change in RNA expression between the ON state and the OFF state": "fold"}, "values": [
      {"molecule": "RA215 (DNA GCTGTCACCGGATGTGCTTTCCGGTACGTGAGGTCCGTGAGGACGAAACAGC; expressed or natural sequence)", "Fold change in RNA expression between the ON state and the OFF state": 1.2},
      {"molecule": "B1", "Fold change in RNA expression between the ON state and the OFF state": 1.1},
      {"molecule": "B2", "Fold change in RNA expression between the ON state and the OFF state": 1.0},
      {"molecule": "B3", "Fold change in RNA expression between the ON state and the OFF state": 1.1},
      {"molecule": "B4", "Fold change in RNA expression between the ON state and the OFF state": 1.0},
      {"molecule": "B5", "Fold change in RNA expression between the ON state and the OFF state": 1.0},
      {"molecule": "B6", "Fold change in RNA expression between the ON state and the OFF state": 1.0},
      {"molecule": "B7", "Fold change in RNA expression between the ON state and the OFF state": 1.1},
      {"molecule": "B8", "Fold change in RNA expression between the ON state and the OFF state": 1.1},
      {"molecule": "B9", "Fold change in RNA expression between the ON state and the OFF state": 1.0},
      {"molecule": "B10", "Fold change in RNA expression between the ON state and the OFF state": 1.0},
      {"molecule": "B11", "Fold change in RNA expression between the ON state and the OFF state": 1.1},
      {"molecule": "B12", "Fold change in RNA expression between the ON state and the OFF state": 2.4},
      {"molecule": "B13", "Fold change in RNA expression between the ON state and the OFF state": 1.1},
      {"molecule": "B14", "Fold change in RNA expression between the ON state and the OFF state": 1.1},
      {"molecule": "B15", "Fold change in RNA expression between the ON state and the OFF state": 1.1},
      {"molecule": "B16", "Fold change in RNA expression between the ON state and the OFF state": 1.1},
      {"molecule": "B17", "Fold change in RNA expression between the ON state and the OFF state": 1.0},
      {"molecule": "B18", "Fold change in RNA expression between the ON state and the OFF state": 1.1},
      {"molecule": "B19", "Fold change in RNA expression between the ON state and the OFF state": 1.1},
      {"molecule": "B20", "Fold change in RNA expression between the ON state and the OFF state": 1.1},
      {"molecule": "B21", "Fold change in RNA expression between the ON state and the OFF state": 1.0},
      {"molecule": "B22", "Fold change in RNA expression between the ON state and the OFF state": 1.0},
      {"molecule": "B23", "Fold change in RNA expression between the ON state and the OFF state": 1.0},
      {"molecule": "B24", "Fold change in RNA expression between the ON state and the OFF state": 1.1},
      {"molecule": "B25", "Fold change in RNA expression between the ON state and the OFF state": 1.0},
      {"molecule": "B26", "Fold change in RNA expression between the ON state and the OFF state": 2.5}
    ]}
  ]
}
